Data published in article PMC10102533.

What was measured:
[1] = target: mouse IgG2a-Fc (Fc only) (mouse); test: SDS-PAGE and Western blot with or without reducing agent
[2] = target: PGLYRP1-mIgG1-Fc (not stated | mouse); test: as above

stoichiometry N [1] | stoichiometry N [2] | Substance
2 | – | mouse IgG2a-Fc (Fc only) (domain or fragment)
– | 2 | PGLYRP1-mIgG1-Fc (Fc fusion)
